Read-outs that look alike come from different tables or passages of the source.
Assays:
Bse634I wt [1] = biological target: T1, Bse634I wt (UniProt Q8RT53 1-293); assay: EMSA
T1 sequence: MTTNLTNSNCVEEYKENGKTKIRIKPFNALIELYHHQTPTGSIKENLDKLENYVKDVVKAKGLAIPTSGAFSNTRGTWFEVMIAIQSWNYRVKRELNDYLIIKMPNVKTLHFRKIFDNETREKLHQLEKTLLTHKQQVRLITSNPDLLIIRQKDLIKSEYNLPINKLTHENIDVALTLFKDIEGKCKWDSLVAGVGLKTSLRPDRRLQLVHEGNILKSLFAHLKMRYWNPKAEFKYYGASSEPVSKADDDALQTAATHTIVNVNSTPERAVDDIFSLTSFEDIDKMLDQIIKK

Bse634I wt [2] = biological target: T1, Bse634I wt; assay: EMSA; remark: listed apart in the source
Bse634I R226A [3] = biological target: T2, Bse634I R226A (UniProt Q8RT53 1-293, R226A); assay: crystal structure
T2 sequence: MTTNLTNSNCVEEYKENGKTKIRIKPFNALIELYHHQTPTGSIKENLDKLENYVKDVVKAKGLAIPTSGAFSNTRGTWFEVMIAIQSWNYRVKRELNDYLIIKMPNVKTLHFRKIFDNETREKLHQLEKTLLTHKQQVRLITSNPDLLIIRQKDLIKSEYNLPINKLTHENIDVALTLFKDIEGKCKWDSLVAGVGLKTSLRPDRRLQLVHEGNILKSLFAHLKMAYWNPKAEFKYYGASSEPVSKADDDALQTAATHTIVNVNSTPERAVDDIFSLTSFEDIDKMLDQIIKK

Bse634I R226A [4] = biological target: T2, Bse634I R226A; assay: crystal structure; remark: listed apart in the source
Bse634I R226A [5] = biological target: T2, Bse634I R226A; assay: crystal structure; remark: listed apart in the source

B1: IC (dsDNA)
DNA 1: CGCACGATCGCCGGCGATGCACGC
DNA 2: GCGTGCATCGCCGGCGATCGTGCG
modifications: inosine for G at position 10 of each strand (written as G)
Bse634I wt [1]
  binding result: binds

B2: AU (dsDNA)
DNA 1: CGCACGATCACCGGUGATGCACGC
DNA 2: GCGTGCATCACCGGUGATCGTGCG
modifications: dU for T at position 15 of each strand
Bse634I wt [1]
  binding result: binds

B3: GC (dsDNA)
DNA 1: CGCACGATCGCCGGCGATGCACGC
DNA 2: GCGTGCATCGCCGGCGATCGTGCG
Bse634I wt [2]
  binding result: binds

B4: AT-2 (dsDNA)
DNA 1: TTCGACCGGTCGA
DNA 2: TTCGACCGGTCGA
Bse634I R226A [3]
  binding result: binds

B5: AT (dsDNA)
DNA 1: CGCACGATCACCGGTGATGCACGC
DNA 2: GCGTGCATCACCGGTGATCGTGCG
Bse634I wt [2]
  binding result: binds

B6: GC-1 (dsDNA)
DNA 1: TCGCGCCGGCGCG
DNA 2: TCGCGCCGGCGCG
Bse634I R226A [4]
  binding result: binds

B7: AT-1 (dsDNA)
DNA 1: TCGCACCGGTGCG
DNA 2: TCGCACCGGTGCG
Bse634I R226A [5]
  binding result: binds

Reference: publication PMC3413111
